The target of one series is T1, EhDPCK1 (Entamoeba histolytica, UniProt C4MB67).
T1 construct: gene EHI_040840; expressed in E. coli BL21(DE3), Ni-NTA purified
T1 sequence (C4MB67 1-206): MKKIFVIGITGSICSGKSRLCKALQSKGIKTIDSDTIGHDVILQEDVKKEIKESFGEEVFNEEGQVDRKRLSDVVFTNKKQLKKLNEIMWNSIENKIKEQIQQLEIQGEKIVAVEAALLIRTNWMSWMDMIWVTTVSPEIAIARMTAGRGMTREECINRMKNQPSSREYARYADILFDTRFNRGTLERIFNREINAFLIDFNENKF
The series can be described thus: inhibition of DPCK activity. Type of series: biochemical.

Another series has as its target T2, EhDPCK2 (Entamoeba histolytica, UniProt C4LWC7).
T2 construct: gene EHI_155780; expressed in E. coli BL21(DE3), Ni-NTA purified
T2 sequence (C4LWC7 1-204): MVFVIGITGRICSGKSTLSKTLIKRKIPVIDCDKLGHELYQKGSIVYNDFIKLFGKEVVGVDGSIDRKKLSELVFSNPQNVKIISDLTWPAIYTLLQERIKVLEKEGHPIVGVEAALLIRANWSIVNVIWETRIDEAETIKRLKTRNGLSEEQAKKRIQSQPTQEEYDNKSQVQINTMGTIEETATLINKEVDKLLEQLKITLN
The series can be described thus: inhibition of DPCK activity. Type of series: biochemical.

Substrate in series [1]: Nc1ncnc2c1ncn2[C@@H]1O[C@H](COP(=O)(O)OP(=O)(O)OP(=O)(O)O)[C@@H](O)[C@H]1O
The series can be described thus: ADP Hunter Plus coupled fluorescence assay, initial rates, non-linear regression. To be noted: 128 μM dephospho-CoA; 1-100 μM ATP; 15 mM Hepes, 20 mM NaCl, 1 mM EGTA, 10 mM MgCl2. Type of series: biochemical, Entamoeba histolytica. The source says: (§1) ADP Hunter Plus coupled fluorescence assay, initial rates, non-linear regression on EhDPCK2

Substrate in series [2]: CC(C)(COP(=O)(O)OP(=O)(O)OC[C@H]1O[C@@H](n2cnc3c(N)ncnc32)[C@H](O)[C@@H]1O)[C@@H](O)C(=O)NCCC(=O)NCCS
The series is described as above. It is filed as biochemical, Entamoeba histolytica. To be noted: 100 μM ATP; 4-128 μM dephospho-CoA; 15 mM Hepes, 20 mM NaCl, 1 mM EGTA, 10 mM MgCl2.
Excerpt: as §1

Substrate in series [3]: Nc1ncnc2c1ncn2[C@@H]1O[C@H](COP(=O)(O)OP(=O)(O)OP(=O)(O)O)[C@@H](O)[C@H]1O
Described as above. The following applies: 128 μM dephospho-CoA; 1-100 μM ATP; 15 mM Hepes, 20 mM NaCl, 1 mM EGTA, 10 mM MgCl2. It is filed as biochemical, Entamoeba histolytica. The source says:
(§2) ADP Hunter Plus coupled fluorescence assay, initial rates, non-linear regression on EhDPCK1
The source holds these as a separate data set.

Substrate in series [4]: CC(C)(COP(=O)(O)OP(=O)(O)OC[C@H]1O[C@@H](n2cnc3c(N)ncnc32)[C@H](O)[C@@H]1O)[C@@H](O)C(=O)NCCC(=O)NCCS
The description is as above. Type of series: biochemical, Entamoeba histolytica. The following applies: 100 μM ATP; 4-128 μM dephospho-CoA; 15 mM Hepes, 20 mM NaCl, 1 mM EGTA, 10 mM MgCl2.
Excerpt: as §2
This is another data set of the same source.

[5] abbreviates: feedback inhibition at relatively high concentrations.
[6] abbreviates: product feedback inhibition at relatively high concentrations.

In the case of `CC(=O)SCCNC(=O)CCNC(=O)[C@H](O)C(C)(C)COP(=O)(O)OP(=O)(O)OC[C@H]1O[C@@H](n2cnc3c(N)ncnc32)[C@H](O)[C@@H]1OP(=O)(O)O` [acetyl-CoA], the inhibition result against EhDPCK1 (setting [5]) is “Both EhDPCK1 and EhDPCK2 showed similar profiles of inhibition by CoA, acetyl-CoA, and malonyl-CoA”; against EhDPCK2 (setting [5]), “Both EhDPCK1 and EhDPCK2 showed similar profiles of inhibition by CoA, acetyl-CoA, and malonyl-CoA”.
On to `CC(C)(COP(=O)(O)OP(=O)(O)OC[C@H]1O[C@@H](n2cnc3c(N)ncnc32)[C@H](O)[C@@H]1OP(=O)(O)O)[C@@H](O)C(=O)NCCC(=O)NCCSC(=O)CC(=O)O` [malonyl-CoA], for which the inhibition entry was “Both EhDPCK1 and EhDPCK2 showed similar profiles of inhibition by CoA, acetyl-CoA, and malonyl-CoA” against EhDPCK1 (setting [5]); “Both EhDPCK1 and EhDPCK2 showed similar profiles of inhibition by CoA, acetyl-CoA, and malonyl-CoA” at EhDPCK2 (setting [5]).
With `CC(C)(COP(=O)(O)OP(=O)(O)OC[C@H]1O[C@@H](n2cnc3c(N)ncnc32)[C@H](O)[C@@H]1OP(=O)(O)O)[C@@H](O)C(=O)NCCC(=O)NCCS` [CoA], the inhibition entry against EhDPCK1 (setting [6]) is “Both EhDPCK1 and EhDPCK2 showed similar profiles of inhibition by CoA, acetyl-CoA, and malonyl-CoA”; against EhDPCK2 (setting [6]) it was “Both EhDPCK1 and EhDPCK2 showed similar profiles of inhibition by CoA, acetyl-CoA, and malonyl-CoA”.

B1: EhDPCK2 (Entamoeba histolytica HM-1:IMSS) (protein)
chain: MVFVIGITGRICSGKSTLSKTLIKRKIPVIDCDKLGHELYQKGSIVYNDFIKLFGKEVVGVDGSIDRKKLSELVFSNPQNVKIISDLTWPAIYTLLQERIKVLEKEGHPIVGVEAALLIRANWSIVNVIWETRIDEAETIKRLKTRNGLSEEQAKKRIQSQPTQEEYDNKSQVQINTMGTIEETATLINKEVDKLLEQLKITLN
notes: expressed in E. coli BL21(DE3), Ni-NTA purified
In the case of B1, in series [1], the Km – broadly, the concentration of substrate that gives half-maximal velocity – turned out to be 15.0 ± 2.4 µM; the Vmax – broadly, the top rate of the reaction or transport when substrate is in excess – is 2.71 µmol/min/mg; the kcat (usually the number of substrate molecules converted per active site and unit of time at saturation) is 1.05 ± 0.0617 s⁻¹; the kcat/Km (in general, the turnover number divided by the Michaelis constant) came out at 70800 ± 12300 M⁻¹ s⁻¹. For the same molecule, in series [2], the Km worked out at 57.9 ± 6.07 µM, the Vmax came out at 2.48 µmol/min/mg, the kcat amounted to 0.958 ± 0.0583 s⁻¹ and the kcat/Km stood at 16500 ± 1170 M⁻¹ s⁻¹.

B2: EhDPCK1 (Entamoeba histolytica HM-1:IMSS) (protein)
chain: MKKIFVIGITGSICSGKSRLCKALQSKGIKTIDSDTIGHDVILQEDVKKEIKESFGEEVFNEEGQVDRKRLSDVVFTNKKQLKKLNEIMWNSIENKIKEQIQQLEIQGEKIVAVEAALLIRTNWMSWMDMIWVTTVSPEIAIARMTAGRGMTREECINRMKNQPSSREYARYADILFDTRFNRGTLERIFNREINAFLIDFNENKF
notes: as for B1
As for B2, in series [3], the Km came to 19.6 ± 1.2 µM, the Vmax came out at 3.54 µmol/min/mg, the kcat was found to be 1.41 ± 0.04 s⁻¹ and the kcat/Km amounted to 72000 ± 3830 M⁻¹ s⁻¹. In series [4], the Km was found to be 114 ± 19 µM, the Vmax was determined as 3.71 µmol/min/mg, the kcat was found to be 1.48 ± 0.172 s⁻¹ and the kcat/Km is 13000 ± 667 M⁻¹ s⁻¹.

The values are drawn from article PMC6284149, “Biochemical, Metabolomic, and Genetic Analyses of Dephospho Coenzyme A Kinase Involved in Coenzyme A Biosynthesis in the Human Enteric Parasite Entamoeba histolytica” (Frontiers in Microbiology, 2018).
